Measurements from IntAct's records for PubMed 20618438.

B1: Hereditary hemochromatosis protein (Homo sapiens), Q30201 (parent)
chain: MGPRARPALLLLMLLQTAVLQGRLLRSHSLHYLFMGASEQDLGLSLFEALGYVDDQLFVFYDHESRRVEPRTPWVSSRISSQMWLQLSQSLKGWDHMFTVDFWTIMENHNHSKESHTLQVILGCEMQEDNSTEGYWKYGYDGQDHLEFCPDTLDWRAAEPRAWPTKLEWERHKIRARQNRAYLERDCPAQLQQLLELGRGVLDQQVPPLVKVTHHVTSSVTTLRCRALNYYPQNITMKWLKDKQPMDAKEFEPKDVLPNGDGTYQGWITLAVPPGEEQRYTCQVEHPGLDQPLIVIWEPSPSGTLVIGVISGIAVFVVILFIGILFIILRKRQGSRGAMGHYVLAERE

How the values were obtained:
tfr1_human TFRC, P02786 = variants of: B1; conditions: with tfr1_human TFRC
Sequence of tfr1_human TFRC, P02786 (P02786 whole entry, looked up): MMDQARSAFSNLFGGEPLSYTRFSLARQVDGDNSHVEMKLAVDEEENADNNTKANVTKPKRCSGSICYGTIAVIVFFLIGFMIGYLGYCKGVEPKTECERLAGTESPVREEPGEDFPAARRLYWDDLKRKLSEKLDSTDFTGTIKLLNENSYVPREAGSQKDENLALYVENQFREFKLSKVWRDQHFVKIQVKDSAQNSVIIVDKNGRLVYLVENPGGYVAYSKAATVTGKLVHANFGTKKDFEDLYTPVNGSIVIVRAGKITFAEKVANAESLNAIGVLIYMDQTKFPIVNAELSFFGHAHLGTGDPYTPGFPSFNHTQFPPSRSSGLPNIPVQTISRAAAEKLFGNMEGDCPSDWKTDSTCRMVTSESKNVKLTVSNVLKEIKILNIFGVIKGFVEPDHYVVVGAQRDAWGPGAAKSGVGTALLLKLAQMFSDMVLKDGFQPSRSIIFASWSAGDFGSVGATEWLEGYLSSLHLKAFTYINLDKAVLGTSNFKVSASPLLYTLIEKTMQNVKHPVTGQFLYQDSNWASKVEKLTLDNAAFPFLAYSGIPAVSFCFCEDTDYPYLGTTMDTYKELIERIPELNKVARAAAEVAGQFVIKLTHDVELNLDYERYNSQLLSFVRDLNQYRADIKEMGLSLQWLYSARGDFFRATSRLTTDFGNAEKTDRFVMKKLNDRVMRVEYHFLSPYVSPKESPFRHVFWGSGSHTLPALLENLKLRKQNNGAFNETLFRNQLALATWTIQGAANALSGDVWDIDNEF

trfe_human TF, P02787 [1] = variants of: B1; conditions: with trfe_human TF
Sequence of trfe_human TF, P02787 (P02787 whole entry): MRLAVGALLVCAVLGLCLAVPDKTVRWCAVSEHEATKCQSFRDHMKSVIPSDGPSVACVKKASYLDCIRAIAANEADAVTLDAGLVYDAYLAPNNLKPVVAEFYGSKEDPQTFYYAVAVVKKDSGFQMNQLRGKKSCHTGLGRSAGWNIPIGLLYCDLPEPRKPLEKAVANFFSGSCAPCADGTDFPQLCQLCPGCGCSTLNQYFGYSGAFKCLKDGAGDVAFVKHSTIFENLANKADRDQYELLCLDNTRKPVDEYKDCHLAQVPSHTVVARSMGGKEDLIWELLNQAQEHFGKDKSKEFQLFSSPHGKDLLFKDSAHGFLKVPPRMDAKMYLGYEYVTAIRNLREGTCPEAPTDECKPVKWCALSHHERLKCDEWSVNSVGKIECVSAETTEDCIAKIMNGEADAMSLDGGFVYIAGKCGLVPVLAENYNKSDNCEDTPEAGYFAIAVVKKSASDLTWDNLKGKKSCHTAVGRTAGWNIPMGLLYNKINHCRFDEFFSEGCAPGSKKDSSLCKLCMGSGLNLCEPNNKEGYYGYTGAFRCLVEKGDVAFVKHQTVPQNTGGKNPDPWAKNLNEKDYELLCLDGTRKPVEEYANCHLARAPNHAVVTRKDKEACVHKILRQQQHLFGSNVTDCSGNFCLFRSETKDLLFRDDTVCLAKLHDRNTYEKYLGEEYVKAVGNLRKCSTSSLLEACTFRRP

trfe_human TF, P02787 [2] = variants of: B1; conditions: with trfe_human TF; remark: listed apart in the source
b2mg_human B2M, P61769 [3] = variants of: B1; conditions: with b2mg_human B2M
trfe_human TF, P02787 [4] = variants of: B1; conditions: with trfe_human TF; remark: listed apart in the source
trfe_human TF, P02787 [5] = variants of: B1; conditions: with trfe_human TF; remark: listed apart in the source
b2mg_human B2M, P61769 [6] = variants of: B1; conditions: with b2mg_human B2M; remark: listed apart in the source

Row | effect of a mutation on the interaction (tfr1_human TFRC, P02786) | effect of a mutation on the interaction (trfe_human TF, P02787 [1]) | effect of a mutation on the interaction (trfe_human TF, P02787 [2]) | effect of a mutation on the interaction (b2mg_human B2M, P61769 [3]) | effect of a mutation on the interaction (trfe_human TF, P02787 [4]) | effect of a mutation on the interaction (trfe_human TF, P02787 [5]) | effect of a mutation on the interaction (b2mg_human B2M, P61769 [6]) | Variant
1 | disrupting interaction | disrupting interaction | decreasing interaction | disrupting interaction |  |  |  | MGPRARPALLLLMLLQTAVLQGRLLRSHSLHYLFMGASEQDLGLSLFEALGYVDDQLFVFYDHESRRVEPRTPWVSSRISSQMWLQLSQSLKGWDHMFTVDFWTIMENHNHSKESHTLQVILGCEMQEDASTEGYWKYGYDGQDHLEFCPDTLDWRAAEPRAWPTKLEWERHKIRARQNRAYLERDCPAQLQQLLELGRGVLDQQVPPLVKVTHHVTSSVTTLRCRALNYYPQNITMKWLKDKQPMDAKEFEPKDVLPNGDGTYQGWITLAVPPGEEQRYTCQVEHPGLDQPLIVIWEPSPSGTLVIGVISGIAVFVVILFIGILFIILRKRQGSRGAMGHYVLAERE [N130A]
2 |  |  |  | disrupting interaction | decreasing interaction |  |  | MGPRARPALLLLMLLQTAVLQGRLLRSHSLHYLFMGASEQDLGLSLFEALGYVDDQLFVFYDHESRRVEPRTPWVSSRISSQMWLQLSQSLKGWDHMFTVDFWTIMENHNHSKESHTLQVILGCEMQEDNSTEGYWKYGYDGQDHLEFCPDTLDWRAAEPRAWPTKLEWERHKIRARQNRAYLERDCPAQLQQLLELGRGVLDQQVPPLVKVTHHVTSSVTTLRCRALNYYPQAITMKWLKDKQPMDAKEFEPKDVLPNGDGTYQGWITLAVPPGEEQRYTCQVEHPGLDQPLIVIWEPSPSGTLVIGVISGIAVFVVILFIGILFIILRKRQGSRGAMGHYVLAERE [N234A]
3 | disrupting interaction | disrupting interaction | decreasing interaction | disrupting interaction |  |  |  | MGPRARPALLLLMLLQTAVLQGRLLRSHSLHYLFMGASEQDLGLSLFEALGYVDDQLFVFYDHESRRVEPRTPWVSSRISSQMWLQLSQSLKGWDHMFTVDFWTIMENHAHSKESHTLQVILGCEMQEDNSTEGYWKYGYDGQDHLEFCPDTLDWRAAEPRAWPTKLEWERHKIRARQNRAYLERDCPAQLQQLLELGRGVLDQQVPPLVKVTHHVTSSVTTLRCRALNYYPQNITMKWLKDKQPMDAKEFEPKDVLPNGDGTYQGWITLAVPPGEEQRYTCQVEHPGLDQPLIVIWEPSPSGTLVIGVISGIAVFVVILFIGILFIILRKRQGSRGAMGHYVLAERE [N110A]
4 |  |  |  |  |  | disrupting interaction | disrupting interaction | MGPRARPALLLLMLLQTAVLQGRLLRSHSLHYLFMGASEQDLGLSLFEALGYVDDQLFVFYDHESRRVEPRTPWVSSRISSQMWLQLSQSLKGWDHMFTVDFWTIMENHNHSKESHTLQVILGCEMQEDNSTEGYWKYGYDGQDHLEFCPDTLDWRAAEPRAWPTKLEWERHKIRARQNRAYLERDCPAQLQQLLELGRGVLDQQVPPLVKVTHHVTSSVTTLRCRALNYYPQNITMKWLKDKQPMDAKEFEPKDVLPNGDGTYQGWITLAVPPGEEQRYTYQVEHPGLDQPLIVIWEPSPSGTLVIGVISGIAVFVVILFIGILFIILRKRQGSRGAMGHYVLAERE [C282Y]
